Test results published in PMC9352680, “A comprehensive thermodynamic model for RNA binding by the Saccharomyces cerevisiae Pumilio protein PUF4”.

T1: PUF4 RNA-binding domain (Saccharomyces cerevisiae, UniProt P25339 537-888)
T1 sequence: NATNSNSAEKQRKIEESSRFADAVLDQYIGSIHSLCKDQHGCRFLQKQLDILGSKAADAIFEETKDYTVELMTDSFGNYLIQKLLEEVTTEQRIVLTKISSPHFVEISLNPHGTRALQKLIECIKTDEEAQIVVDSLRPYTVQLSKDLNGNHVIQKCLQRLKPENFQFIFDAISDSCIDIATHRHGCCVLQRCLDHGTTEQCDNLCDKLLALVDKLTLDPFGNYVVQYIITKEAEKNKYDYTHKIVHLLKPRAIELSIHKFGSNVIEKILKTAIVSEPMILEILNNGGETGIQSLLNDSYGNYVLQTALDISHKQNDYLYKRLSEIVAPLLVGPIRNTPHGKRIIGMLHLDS


Target: T1, PUF4 RNA-binding domain
Test: Mg; RNA-MaP; 20 mM Na-HEPES pH 7.4, 30 mM KOAc, 0.75 mM MgCl2, 0.1% Tween-20, 5% glycerol, 0.1 mg/mL BSA, 2 mM DTT; 25 C; 0.0125-409.6 nM protein
Details: tags: N-His6-TEV cleaved; C-SNAP kept, Cy3B-labelled; label: tethered on chip by stalled RNA polymerase

Row | Binder | Kd
1 | UCUCUUAUACACUAUUAUAUCUCUU (ssRNA) [Id_ii_S1_P4E.4_K4.3_C4.2_[C-2A]_H4.3_A4.1_F4.1_T4.2_[G10T]_[T11A]] | 31.1 nM
2 | UCUCUUAAACACUAUUAAAUCUCUU (ssRNA) [Id_ii_S1_P4E.4_K4.3_C4.2_[C-2A]_[T-1A]_H4.3_A4.1_F4.1_T4.2_[G10A]_[T11A]] | > 2300 nM
3 | UCUCUUCGACACUAUUAACUCUCUU (ssRNA) [Id_ii_S1_P4E.4_K4.3_C4.2_[T-1G]_H4.3_A4.1_F4.1_T4.2_[G10A]_[T11C]] | > 2300 nM
4 | UCUCUUCGACACUAUUACUUCUCUU (ssRNA) [Id_ii_S1_P4E.4_K4.3_C4.2_[T-1G]_H4.3_A4.1_F4.1_T4.2_[G10C]] | > 2300 nM
5 | UCUCUUCAACACUAUUACGUCUCUU (ssRNA) [Id_ii_S1_P4E.4_K4.3_C4.2_[T-1A]_H4.3_A4.1_F4.1_T4.2_[G10C]_[T11G]] | > 2300 nM
6 | UCUCUUUUACACUAUUAACUCUCUU (ssRNA) [Id_ii_S1_P4E.4_K4.3_C4.2_[C-2T]_H4.3_A4.1_F4.1_T4.2_[G10A]_[T11C]] | 977 nM
7 | UCUCUUUUACACUAUUAAUUCUCUU (ssRNA) [Id_ii_S1_P4E.4_K4.3_C4.2_[C-2T]_H4.3_A4.1_F4.1_T4.2_[G10A]] | 1120 nM
8 | UCUCUUUGUAACUUAUCUCUU (ssRNA) [Ib_S1_P4E.1_K4.1_C4.1_H4.1_A4.1_[T5A]_[A6C]_F4.1_T4.1] | 8.33 nM
9 | UCUCUUACACACUAUUACGUCUCUU (ssRNA) [Id_ii_S1_P4E.4_K4.3_C4.2_[C-2A]_[T-1C]_H4.3_A4.1_F4.1_T4.2_[G10C]_[T11G]] | > 2300 nM
10 | UCUCUUCAACACUAUUAUAUCUCUU (ssRNA) [Id_ii_S1_P4E.4_K4.3_C4.2_[T-1A]_H4.3_A4.1_F4.1_T4.2_[G10T]_[T11A]] | > 2300 nM
11 | UCUCUUAUACACUAUUAGCUCUCUU (ssRNA) [Id_ii_S1_P4E.4_K4.3_C4.2_[C-2A]_H4.3_A4.1_F4.1_T4.2_[T11C]] | 49.5 nM
12 | UCUCUUAAACACUAUUACCUCUCUU (ssRNA) [Id_ii_S1_P4E.4_K4.3_C4.2_[C-2A]_[T-1A]_H4.3_A4.1_F4.1_T4.2_[G10C]_[T11C]] | > 2300 nM
13 | UCUCUUAAACACUAUUAUAUCUCUU (ssRNA) [Id_ii_S1_P4E.4_K4.3_C4.2_[C-2A]_[T-1A]_H4.3_A4.1_F4.1_T4.2_[G10T]_[T11A]] | > 2300 nM
14 | UCUCUUCAACACUAUUAGUUCUCUU (ssRNA) [Id_ii_S1_P4E.4_K4.3_C4.2_[T-1A]_H4.3_A4.1_F4.1_T4.2] | > 2300 nM
15 | UCUCUUUGUACGUUAUCUCUU (ssRNA) [Ic_S1_P4E.1_K4.1_C4.1_H4.1_A4.1_[T5C]_[A6G]_F4.1_T4.1] | 4.05 nM
16 | UCUCUUUGUACCUUAUCUCUU (ssRNA) [Ib_S1_P4E.1_K4.1_C4.1_H4.1_A4.1_[T5C]_[A6C]_F4.1_T4.1] | 3.61 nM

Row | Binder | Kd
17 | UCUCUUCCACACUAUUACGUCUCUU (ssRNA) [Id_ii_S1_P4E.4_K4.3_C4.2_[T-1C]_H4.3_A4.1_F4.1_T4.2_[G10C]_[T11G]] | > 2300 nM
18 | UCUCUUGCUGUAUUAUUAAUUCUCUU (ssRNA) [Id_ii_S1_P5E.2_K5.1_C5.2_[C-2G]_[T-1C]_H5.1_A5.1_F5.1_T5.2_[T11A]_[A12T]] | 21.6 nM
19 | UCUCUUCGACACUAUUAUCUCUCUU (ssRNA) [Id_ii_S1_P4E.4_K4.3_C4.2_[T-1G]_H4.3_A4.1_F4.1_T4.2_[G10T]_[T11C]] | > 2300 nM
20 | UCUCUUACACACUAUUAACUCUCUU (ssRNA) [Id_ii_S1_P4E.4_K4.3_C4.2_[C-2A]_[T-1C]_H4.3_A4.1_F4.1_T4.2_[G10A]_[T11C]] | > 2300 nM
21 | UCUCUUUUACACUAUUAGCUCUCUU (ssRNA) [Id_ii_S1_P4E.4_K4.3_C4.2_[C-2T]_H4.3_A4.1_F4.1_T4.2_[T11C]] | 1600 nM
22 | UCUCUUCAACACUAUUACUUCUCUU (ssRNA) [Id_ii_S1_P4E.4_K4.3_C4.2_[T-1A]_H4.3_A4.1_F4.1_T4.2_[G10C]] | > 2300 nM
23 | UCUCUUCCACACUAUUAGAUCUCUU (ssRNA) [Id_ii_S1_P4E.4_K4.3_C4.2_[T-1C]_H4.3_A4.1_F4.1_T4.2_[T11A]] | > 2300 nM
24 | UCUCUUUGUACUUUAUCUCUU (ssRNA) [Ib_S1_P4E.1_K4.1_C4.1_H4.1_A4.1_[T5C]_[A6T]_F4.1_T4.1] | 2.73 nM
25 | UCUCUUUUACACUAUUAGUUCUCUU (ssRNA) [Id_ii_S1_P4E.4_K4.3_C4.2_[C-2T]_H4.3_A4.1_F4.1_T4.2] | 1370 nM
26 | UCUCUUCAACACUAUUAAUUCUCUU (ssRNA) [Id_ii_S1_P4E.4_K4.3_C4.2_[T-1A]_H4.3_A4.1_F4.1_T4.2_[G10A]] | > 2300 nM
27 | UCUCUUCCACACUAUUACAUCUCUU (ssRNA) [Id_ii_S1_P4E.4_K4.3_C4.2_[T-1C]_H4.3_A4.1_F4.1_T4.2_[G10C]_[T11A]] | > 2300 nM
28 | UCUCUUGCUGUAUUAUUAUUUCUCUU (ssRNA) [Id_ii_S1_P5E.2_K5.1_C5.2_[C-2G]_[T-1C]_H5.1_A5.1_F5.1_T5.2_[A12T]] | 10.5 nM
29 | UCUCUUCCACACUAUUACUUCUCUU (ssRNA) [Id_ii_S1_P4E.4_K4.3_C4.2_[T-1C]_H4.3_A4.1_F4.1_T4.2_[G10C]] | > 2300 nM
30 | UCUCUUACACACUAUUAGCUCUCUU (ssRNA) [Id_ii_S1_P4E.4_K4.3_C4.2_[C-2A]_[T-1C]_H4.3_A4.1_F4.1_T4.2_[T11C]] | > 2300 nM
31 | UCUCUUCCACACUAUUAGUUCUCUU (ssRNA) [Id_ii_S1_P4E.4_K4.3_C4.2_[T-1C]_H4.3_A4.1_F4.1_T4.2] | > 2300 nM
